Data as given in article PMC549571.
Where two headings read alike, the source gives them in different places.

B1: non-telomeric mixed (MXT/MXB) (dsDNA)
DNA 1: GTGGATCCGTACGATGGTTTTAGGTGAACACGAATTCGA
DNA 2: TCGAATTCGTGTTCACCTAAAACCATCGTACGGATCCAC
B2: CTRL (dsDNA)
DNA 1: GTGGATCCGTACTTAGGGTTAGGGTTAACACGAATTCGA
DNA 2: TCGAATTCGTGTTAACCCTAACCCTAAGTACGGATCCAC
B3: 8oxoG3 (dsDNA)
DNA 1: B2 DNA 1
DNA 2: B2 DNA 2
modifications: 8-oxoG at positions 16, 17, 18 of strand 1
B4: 8oxoG1-1 (dsDNA)
DNA 1: B2 DNA 1
DNA 2: B2 DNA 2
modifications: 8-oxoG at positions 17, 23 of strand 1
B5: 8oxoG2 (dsDNA)
DNA 1: B2 DNA 1
DNA 2: B2 DNA 2
modifications: 8-oxoG at positions 17, 18 of strand 1
B6: 8oxoG1 (dsDNA)
DNA 1: B2 DNA 1
DNA 2: B2 DNA 2
modifications: 8-oxoG at position 17 of strand 1

Assays:
Test in all cases: EMSA
[1] = target: T1, TRF2ΔN (Homo sapiens, UniProt Q15554 87-542)
[2] = target: T2, TRF1 (Homo sapiens, UniProt P54274 1-439)
[3] = target: T1, TRF2ΔN; remark: listed apart in the source
[4] = target: T2, TRF1; remark: listed apart in the source
[5] = target: T2, TRF1; remark: listed apart in the source

T2 sequence (P54274 whole entry): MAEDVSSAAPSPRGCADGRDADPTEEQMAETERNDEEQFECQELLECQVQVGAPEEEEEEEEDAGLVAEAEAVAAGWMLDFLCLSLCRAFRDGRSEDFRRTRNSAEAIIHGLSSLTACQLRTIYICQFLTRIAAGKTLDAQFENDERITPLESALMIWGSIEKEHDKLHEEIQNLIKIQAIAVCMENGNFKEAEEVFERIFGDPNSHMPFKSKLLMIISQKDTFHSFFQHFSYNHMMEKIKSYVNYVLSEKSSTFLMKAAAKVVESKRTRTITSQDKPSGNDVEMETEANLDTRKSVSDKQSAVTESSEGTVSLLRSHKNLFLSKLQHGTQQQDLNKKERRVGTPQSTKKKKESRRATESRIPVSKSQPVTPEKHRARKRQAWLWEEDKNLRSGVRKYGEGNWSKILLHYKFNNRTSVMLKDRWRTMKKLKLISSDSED
T1 sequence (Q15554 87-542, stated change not applied): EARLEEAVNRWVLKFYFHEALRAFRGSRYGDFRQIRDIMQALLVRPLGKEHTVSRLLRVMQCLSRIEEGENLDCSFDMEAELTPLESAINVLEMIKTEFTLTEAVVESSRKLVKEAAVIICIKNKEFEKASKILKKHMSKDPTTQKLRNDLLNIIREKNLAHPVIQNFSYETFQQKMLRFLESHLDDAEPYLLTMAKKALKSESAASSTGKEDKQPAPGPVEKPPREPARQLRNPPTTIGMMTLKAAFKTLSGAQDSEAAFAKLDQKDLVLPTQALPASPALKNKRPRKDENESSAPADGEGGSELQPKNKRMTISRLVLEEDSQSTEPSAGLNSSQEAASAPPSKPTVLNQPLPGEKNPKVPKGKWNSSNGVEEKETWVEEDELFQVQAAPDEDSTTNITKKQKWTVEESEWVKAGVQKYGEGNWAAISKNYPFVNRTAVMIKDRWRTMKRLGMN

Binder	binding signal [3] [% bound at 100 nM TRF2ΔN]	binding signal [4]	other results
B1			binding result [1]: no binding; binding result [2]: no binding
B2	55	61 ± 6 % bound at 25 nM TRF1	
B3		21 fold decrease in % bound vs control at 25 nM TRF1	
B4			binding signal [5]: 18 fold decrease in % bound vs control at 25 nM TRF1
B5	17	29 ± 2 % bound at 25 nM TRF1	
B6	11	31 ± 6 % bound at 25 nM TRF1	
